Biological target: FVIII (B region deleted), purchased from American Pharma Wholesale (human) (UniProt P00451)
Experiment: cell-based or functional assay

Chain of UniProt P00451 (P00451 other isoform, or with tags, fused parts or gaps, chain 1 of 2): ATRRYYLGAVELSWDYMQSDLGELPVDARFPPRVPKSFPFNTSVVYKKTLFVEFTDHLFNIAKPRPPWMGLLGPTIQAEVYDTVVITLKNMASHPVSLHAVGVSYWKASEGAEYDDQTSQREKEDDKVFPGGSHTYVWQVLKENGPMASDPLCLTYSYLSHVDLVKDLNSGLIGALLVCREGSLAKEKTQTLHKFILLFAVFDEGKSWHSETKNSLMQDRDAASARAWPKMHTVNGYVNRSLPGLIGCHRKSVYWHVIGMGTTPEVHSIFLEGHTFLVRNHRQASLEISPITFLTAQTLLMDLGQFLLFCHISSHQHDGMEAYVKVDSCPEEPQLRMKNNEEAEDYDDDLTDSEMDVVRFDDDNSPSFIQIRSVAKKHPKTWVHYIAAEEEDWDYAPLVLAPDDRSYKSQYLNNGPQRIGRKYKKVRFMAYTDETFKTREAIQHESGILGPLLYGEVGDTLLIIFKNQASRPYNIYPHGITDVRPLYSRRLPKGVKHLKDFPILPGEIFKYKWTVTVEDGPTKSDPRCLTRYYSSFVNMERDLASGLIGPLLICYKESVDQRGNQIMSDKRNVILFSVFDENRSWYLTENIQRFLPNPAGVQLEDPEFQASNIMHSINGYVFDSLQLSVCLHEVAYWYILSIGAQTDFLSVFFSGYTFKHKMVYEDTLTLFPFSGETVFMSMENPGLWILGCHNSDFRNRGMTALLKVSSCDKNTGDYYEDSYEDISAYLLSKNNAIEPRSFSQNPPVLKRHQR
Chain of UniProt P00451 (P00451 1668-2351, stated change not applied, chain 2 of 2): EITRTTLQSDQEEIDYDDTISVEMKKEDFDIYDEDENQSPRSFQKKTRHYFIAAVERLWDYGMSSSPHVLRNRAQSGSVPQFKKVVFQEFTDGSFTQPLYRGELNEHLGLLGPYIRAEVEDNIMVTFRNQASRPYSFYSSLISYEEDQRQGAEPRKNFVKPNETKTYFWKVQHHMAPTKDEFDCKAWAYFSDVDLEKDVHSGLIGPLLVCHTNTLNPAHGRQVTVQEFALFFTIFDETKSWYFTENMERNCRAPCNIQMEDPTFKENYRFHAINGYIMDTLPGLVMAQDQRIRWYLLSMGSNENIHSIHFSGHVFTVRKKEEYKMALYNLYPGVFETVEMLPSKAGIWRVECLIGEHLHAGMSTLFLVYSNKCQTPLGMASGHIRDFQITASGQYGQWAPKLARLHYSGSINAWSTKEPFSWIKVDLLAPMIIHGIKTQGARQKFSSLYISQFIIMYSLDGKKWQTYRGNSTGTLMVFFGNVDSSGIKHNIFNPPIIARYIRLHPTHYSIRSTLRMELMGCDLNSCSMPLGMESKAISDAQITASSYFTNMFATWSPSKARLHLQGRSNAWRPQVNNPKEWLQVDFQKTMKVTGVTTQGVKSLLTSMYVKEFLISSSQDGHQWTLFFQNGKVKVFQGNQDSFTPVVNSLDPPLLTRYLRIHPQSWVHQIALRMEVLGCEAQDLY

fold decrease in specific activity of CM211 in the APTT against the Coatest assay: 6.5 fold
Substance: CM110 (expressed from plasmid pCM110RMHM: D′D3 region of human von Willebrand Factor with cys1099 and cys1142 changed to alanine, 56 amino acid glycine serine rich linker, full length human albumin, no His tag) (from UniProt P04275 764-1247)
